The experiment has as its target T1, Human NKp30 (BKM0179) (human, UniProt O14931).
T1 chain: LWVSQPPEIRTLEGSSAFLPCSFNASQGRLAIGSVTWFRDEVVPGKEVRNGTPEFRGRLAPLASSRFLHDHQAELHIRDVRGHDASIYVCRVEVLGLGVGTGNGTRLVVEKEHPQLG

Data on 1 molecule can be found in patent publication US20260327306 (published 2026).

B1: BKM0138 (BJM0411 VL-N95A) (antibody, V domains shown)
VH: EIQLLESGGGLVQPGGSLRLSCAVSGFSITTTGYHWNWVRQAPGKGLEWVGYIYSSGSTSYNPSLKSRFTISRDTSKNTFYLQMNSLRAEDTAVYYCARGDWHYFDYWGQGTMVTVSS
VL: DSVTTQSPLSLPVTLGQPASISCSGEKLSDKYVHWYQQRPGQSPRMLIYENDRRPSGVPDRFSGSNSGNDATLKVEAEDVGVYFCQFWDSTASAVFGGGTKVEIKI
For orientation: Kd means the free concentration of one partner at which half of the binding sites on the other are occupied at equilibrium, for simple one-to-one binding. Low values mean tighter binding, high ones weaker binding. On to B1, for which the dissociation constant Kd is 3.2 nM.
